B1: O. sativa Aquaporin, prey clone aa 123-290 (other)
chain: RKVSLVRAILYIVAQCLGAICGVGLVNAFPNAYFNRYGGGANTLAAGYSKGTGLAAEIIGTFVLVYTVFSATDPKRNARDSHVPVLAPLPIGFAVFMVHLATIPITGTGINPARSIGAAVIFNNEKAWHNHWIFWVGPFVGAAIAAFYHQYILRAGAIKALGSFRSNA
notes: prey; AD fusion; output trait library; also called OsPIP2A; OsPIP2a
B2: O. sativa salT Gene Product, prey clone aa 6-145 (other)
chain: IGPWGGNGGSAQDISVPPKKLLGVTIYSSDAIRSIAFNYIGVDGQEYAIGPWGGGESTSTEIKLGSSEQIKEISGTHGPVYDLADIVTYLKIVTSANNTYEAGVPNGKEFSIPLQDSGHVVGFFGRSGTLIDAIGIYVHP
notes: prey; AD fusion; output trait library; also called OsAAB53810; PN29086
B3: Novel Protein PN29115, Fragment, Similar to A. thaliana 6,7-Dimethyl-8-Ribityllumazine Synthase Precursor, prey clone aa 1-188 (other)
chain: VSFPYSPRPAALAAGARASRVSPVVVAAGGGHQRLMGSLTNTQGLRFGVVVARFNEIVTNLLLQGALETFERYSVKKENITVLSVPGSFEIPVAAQKLGKSGKFDANFVHWRCAFRGDTTHYGAVANSAASGVLSAGLSAEIPCIFGVLTCDDMDQALNRAGGKAGNKGAEAALTAIEMASLFQHHLA
notes: prey; AD fusion; output trait library; also called OsPN29115
B4: Novel Protein PN29076, Fragment, prey clone aa 1-187 (other)
chain: ERDISMVNSYPPSAFDCKGWNSASIFIYESDEEIQCLLDWLRDYDPREKELKDSILQWQRHFCHQSSSPLVDPPISGPKGEQLMELPNTKAAVILEQKYGLQLDQDTSDLPKKRGKKIKLSSEDRTYRCDCLEPVWPSRYHCLTCHETYLISTEFEGHNDGKCSKIHQSPDESRENDEPKVKVTKSD
notes: prey; AD fusion; output trait library; also called OsPN29076
B5: Novel Protein PN29084, Fragment, Similar to Soybean (Glycine max) Calcium-Dependent Protein Kinase, prey clone aa 1-253 (other)
chain: ESGIFRQILRGKLDLESDPWPSISDSAKDLVRNMLIRDPTKRFTAHEVLCHPWIVDDAVAPDKPIDSAVLSRLKHFSAMNKLKKMALRVIAESLSEEEIGGLKELFKMIDTDNSGTITYDELKNGLKRVGSDLMEPEIQALMDAADIDNSGTIDYGEFLAATLHMNKLEREENLVSAFTFFDKDGSGFITIDELSQACEQFGLSDVHLEDMIKDVDQNNDGQIDYSEFAAMMRKGNAGGANAGGVTSTGGTGR
notes: prey; AD fusion; output trait library; three clones; also called OsPN29084
B6: O. sativa Cellulose Synthase Catalytic Subunit, RSW1-Like, prey clone aa 316-582 (enzyme)
chain: LLDQFPKWYPINRETYLDRLALRYDREGEPSQLAPIDVFVSTVDPLKEPPLITANTVLSILAVDYPVDKVSCYVSDDGSAMLTFEALSETAEFARKWVPFCKKHNIEPRAPEFYFAQKIDYLKDKIQPSFVKERRAMKREYEEFKVRINALVAKAQKVPEEGWTMADGTAWPGNNPRDHPGMIQVFLGHSGGLDTDGNELPRLVYVSREKRPGFQHHKKAGAMNALIRVSAVLTNGAYLLNVDCDHYFNNSKALREAMCFMMDPALG
notes: prey; AD fusion; input trait library; also called OsCS; PN19707
B7: Novel Protein PN29077, Fragment, Similar to A. thaliana DNA-Damage Inducible Protein DDI1-Like, prey clone aa 1-242 (other)
chain: VEAQKKIEAAIRQKGIDENWEAALEHNPEAFARVVMLYVDMEVNGVPLKAFVDSGAQSTIISKSCAERCGLLRLLDQRYRGVAIGVGQSEILGRIHVAPIKIGHVFYPCSFTVLDAPNMEFLFGLDMLRKHQCIIDLKDNVLRVGGGEVSVPFLQEKDIPSHIRDEEKLSKLASLSQGAAGESSTAREKTPDAPPRAPTTGAPAVNPPQPQGGGDFEAKVTKLVELGFDRASVIQALKLFNG
notes: prey; AD fusion; output trait library; four clones; also called OsPN29077
B8: O. sativa DNAJ Homologue, prey clone aa 1-92 (other)
chain: CKVSYIDAILGTTVKVPTVDGMVDLKIPSGTQPGTTLVMSKKGVPLLGKSNARGDQLVRVQVEIPKRLSSDERKLIEELANLNKAQTANSRR
notes: prey; AD fusion; output trait library; also called OsPN29113
B9: Hypothetical Protein OsContig3864, Similar to H. vulgare Photosystem I Reaction Center Subunit II, Chloroplast Precursor, prey clone aa 94-203 (other)
chain: VITWTSPKEQVFEMPTGGAAIMREGPNLLKLARKEQCLALGTRLRSKYKINYQFYRVFPNGEVQYLHPKDGVYPEKVNAGRQGVGQNFRSIGKNVSPIEVKFTGKNVFDI
notes: prey; AD fusion; input trait library; also called OsPN23061
B10: OsContig4331, O. sativa Putative 33 kDa Oxygen-Evolving Protein of Photosystem II, prey clone aa 90-169 (other)
chain: PRRLTFDEIQSKTYMEVKGTGTANQCPTVEGGVDSFAFKAGKYNMKKFCLEPTSFTVKAEGVAKNAPPEFQKTKLMTRLT
notes: prey; AD fusion; input trait library; also called OsPN23059
B11: O. sativa Photosystem II 10 kDa Polypeptide, prey clone aa 82-126 (other)
chain: SPEEWSPTGDTYVGGTTGLLIWAVTLAGLLGGGALLVYNTSALAG
notes: prey; AD fusion; input trait library; also called OsAAB46718; PN22840
B12: Novel Protein PN22866, Fragment, Similar to A. thaliana Vacuolar ATP Synthase Subunit C, prey clone aa 95-305 (other)
chain: LLALSDDLVKSNVFIEGVSHKIRRQIEELERAGGVESGALTVDGVPVDTYLTRFVWDEGKYPTMSPLKEIAGSIQSQVSKIEDDMKVRGAEYNNVRSQLNAINRKQTGSLAVRDLSNLVKPEDMVTSEHLVTLLAVVPQYSQKDWLSSYESLDTFVVPRSSKKLYEDNEYALYTVTLFAKVVDNFKVRAREKGFQVRDFEYSSEAQESRKE
notes: prey; AD fusion; input trait library; also called OsPN22866
B13: Novel Protein 22874, Fragment, similar to Arabidopsis Putative Phosphatidylinositol-4-phosphate 5-kinase, prey clone aa 1-88 (other)
chain: GTNPGFRVGEIRLSNRDIYFGTLLGNTPEGSGRYVWSDGCTYDGEWRRGMRHGQGKTMWPSGATYEGEYSGGYIYGEGTYTGSDNIVY
notes: prey; AD fusion; input trait library; also called OsPN22874; rice PI4P5K
B14: Novel Protein 22858, Fragment, similar to Arabidopsis GTP Cyclohydrolase II, prey clone aa 27-154 (other)
chain: DKPTDGFSSIDEAIGALHEGKFVIAVDDESGDNEGDLVMAATLADPESIAFMIRNGSGIISVGMKEEDLTRLMIPMMSPIAEIEDISAAASTVTVDARVGISTGVSAADRAKTIFTLASPDSKPTDLR
notes: prey; AD fusion; input trait library; also called OsPN22858
B15: OsContig4331, O. sativa Putative 33 kDa Oxygen-Evolving Protein of Photosystem II, prey clone aa 193-333 (other)
chain: DGIDYAAVTVQLPGGERVPFLFTIKNLVATGKPESFGGPFLVPSYRGSSFLDPKGRGGSTGYDNAVALPAGGRGDEEELAKENVKNASSSTGNITLSVTKSKPETGEVIGVFESVQPSDTDLGAKVPKDVKIQGVWYAQLE
notes: as for B10
B16: Novel Protein PN30846 (putative dynamin homolog), prey clone aa 1-266 (other)
chain: APRRPSTFLNAVALGNVGAGKSAVLNSLIGHPVLPTGENGATRAPIVVDLQRDPGLSSKSIVLQIDSKSQRVSASSLRHSLQDRLSKGASSGSSRGRVEGINLKLRTSTAPPLKLVDLPGIDQRAVDDPMINEYAGHNDAILLVVIPAMQAADVASSRALRLAKDIDADGTRTVGVISKVDQAEGDAKTIACVQALLLNKGPKNLPDIEWVALIGQSVAIASAQAAGSENSLETAWNAEAETLRSILTGAPKSKLGRIALVDTIAK
notes: prey; AD fusion; input trait library; also called OsPN30846
B17: O. sativa Fructose-Bisphosphate Aldolase, Chloroplast Precursor, prey clone aa 206-269 (enzyme)
chain: QDNGLVPIVEPEILLDGEHGIDRTFEVAQKVWAETFFYMAENNVMFEGILLKPSMVTPGAECKD
notes: prey; AD fusion; input trait library; also called OsBAA02730; PN22832
B18: O. sativa 3-Phosphoshikimate 1-carboxyvinyltransferase (a.k.a. EPSP Synthase), prey clone aa 463-511 (enzyme)
chain: AIDTYDDHRMAMAFSLAACADVPVTIRDPGCTRKTFPNYFDVLSTFVRN
notes: prey; AD fusion; input trait library; also called OsBAB61062; PN22844
B19: O. sativa Ribulose Bisphosphate Carboxylase/Oxygenase Activase, Large Isoform A1, prey clone aa 68-210 (enzyme)
chain: DISDDQQDITRGKGFVDSLFQAPTGDGTHEAVLSSYEYLSQGLRTYDFDNTMGGFYIAPAFMDKLVVHISKNFMTLPNIKVPLILGIWGGKGQGKSFQCELVFAKMGINPIMMSAGELESGNAGEPAKLIRQRYREAADIIKK
notes: prey; AD fusion; input trait library; also called OsRCAA1; PN19842
B20: Novel Protein PN30974, prey clone aa 38-178 (other)
chain: GGYDHPGLIPGLPDEISLQILARMPRMGYLNAKMVSRSWKAAITGVELYRVRKELGVSEEWLYMLTKSDDGKLVWNAFDPVCGQWQRLPLMPGISHGGECKRGIPGLWLGDLLSAGIRVSDVIRGWLGQRDSLDRLPFCGC
notes: prey; AD fusion; input trait library; also called OsPN30974
B21: Novel Protein PN29982, prey clone aa 201-300 (other)
chain: SPVVDNADVTETKPQTELPVHVMCAEWSSQKRLKKVQLETLERVYSRTKRPTNTMISSIVQVTSLPRKTIVKWFEDRREQDGVPDHRVAFKRSLSETIAS
notes: prey; AD fusion; input trait library; also called OsPN29982

molecular target: T1, O. sativa Cellulose Synthase Catalytic Subunit, RSW1-Like, bait fragment aa 316-583 (Oryza sativa, UniProt A2Y0X2 316-583); assay: yeast two-hybrid
T1 construct: bait; also called OsCS; PN19707
T1 sequence: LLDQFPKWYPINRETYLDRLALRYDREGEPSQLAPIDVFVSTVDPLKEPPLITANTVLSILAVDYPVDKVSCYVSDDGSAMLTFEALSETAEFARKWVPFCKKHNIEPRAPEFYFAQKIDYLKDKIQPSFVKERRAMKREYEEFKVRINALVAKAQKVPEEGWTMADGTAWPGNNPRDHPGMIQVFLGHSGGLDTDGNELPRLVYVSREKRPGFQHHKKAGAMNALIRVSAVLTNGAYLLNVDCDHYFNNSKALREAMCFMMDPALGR
Description: Yeast carrying the target gene construct was combined with yeast carrying the activation domain library. The two yeast strains mated to form diploid yeast and were plated on media that selected for expression of one or more Ga14p-responsive reporter genes. Thus, both hybrid proteins (i.e., the target “bait” protein and the activation domain “prey” protein) were expressed in a yeast reporter strain where an interaction between the test proteins results in transcription of the reporter genes […]. Colonies that arose after incubation were selected for further characterization. The activation domain plasmid was isolated from each colony obtained in the two-hybrid search. The sequence of the insert in this construct was obtained by sequence analysis (e.g., Sanger's dideoxy nucleotide chain termination method; see Ausubel et al., 1988, including updates up to 2002). Thus, the identity of positives obtained from these searches was determined by sequence analysis against proprietary and public (e.g., GENBANK®) nucleic acid and protein databases.
A second bait, namely O. sativa Cellulose Synthase Catalytic Subunit, RSW1-Like (OSCS; PN19707; GENBANK® Accession No. AF030052), was also used.

Binding result, binds:
B1
B2
B3
B4
B5
B6
B7
B8

molecular target: T2, O. sativa 14-3-3 Protein Homolog GF14-c, bait fragment aa 1-150 (Oryza sativa, UniProt Q6ZKC0 1-150); assay: yeast two-hybrid
T2 construct: bait; also called OsGF14-c; PN12464
T2 sequence: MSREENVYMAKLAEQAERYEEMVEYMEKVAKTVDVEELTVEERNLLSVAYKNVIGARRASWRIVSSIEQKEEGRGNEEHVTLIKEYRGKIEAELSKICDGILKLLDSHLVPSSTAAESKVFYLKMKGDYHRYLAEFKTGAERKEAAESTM

Binding result, binds:
B9
B10
B11
B12
B13
B14
B15
B16
B17
B18
B19
B20
B21
